Assay results published in publication PMC4399976 (The Biochemical journal, 2015).

Biological target: wild-type (WT) proMMP-9 trimer (reduction-sensitive homomultimer) (human, UniProt P14780 20-707)
Experiment: SPR

wild-type (WT) proMMP-9 trimer (reduction-sensitive homomultimer), sequence (P14780 20-707): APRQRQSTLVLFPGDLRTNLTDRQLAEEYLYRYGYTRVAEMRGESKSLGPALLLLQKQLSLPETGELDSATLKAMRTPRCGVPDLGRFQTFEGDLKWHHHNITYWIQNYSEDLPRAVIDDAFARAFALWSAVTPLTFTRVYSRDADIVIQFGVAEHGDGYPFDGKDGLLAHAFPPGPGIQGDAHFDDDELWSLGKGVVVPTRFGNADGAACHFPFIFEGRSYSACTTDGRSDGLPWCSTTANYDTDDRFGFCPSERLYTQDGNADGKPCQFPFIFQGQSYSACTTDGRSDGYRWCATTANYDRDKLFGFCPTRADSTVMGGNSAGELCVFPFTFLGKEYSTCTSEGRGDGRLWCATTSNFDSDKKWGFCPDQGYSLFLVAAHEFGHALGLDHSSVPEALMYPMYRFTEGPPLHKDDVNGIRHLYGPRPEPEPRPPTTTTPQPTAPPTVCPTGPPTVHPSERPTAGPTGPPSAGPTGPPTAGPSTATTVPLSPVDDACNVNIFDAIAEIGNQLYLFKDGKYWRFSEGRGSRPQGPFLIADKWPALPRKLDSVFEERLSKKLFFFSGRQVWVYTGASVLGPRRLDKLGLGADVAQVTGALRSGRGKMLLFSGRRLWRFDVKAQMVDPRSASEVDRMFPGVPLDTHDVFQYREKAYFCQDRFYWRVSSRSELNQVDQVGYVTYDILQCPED

Kd: 0.4 nM
B1: tissue inhibitor of metalloproteinases-1 (TIMP-1), recombinant human (natural protein)
chain: not shown
